Test results taken from IntAct's records for PubMed 10837255.

B1: Spindle assembly checkpoint serine/threonine-protein kinase BUB1 (Saccharomyces cerevisiae), P41695 (parent)
chain: MNLDLGSTVRGYESDKDTFPQSKGVSSSQKEQHSQLNQTKIAYEQRLLNDLEDMDDPLDLFLDYMIWISTSYIEVDSESGQEVLRSTMERCLIYIQDMETYRNDPRFLKIWIWYINLFLSNNFHESENTFKYMFNKGIGTKLSLFYEEFSKLLENAQFFLEAKVLLELGAENNCRPYNRLLRSLSNYEDRLREMNIVENQNSVPDSRERLKGRLIYRTAPFFIRKFLTSSLMTDDKENRANLNSNVGVGKSAPNVYQDSIVVADFKSETERLNLNSSKQPSNQRLKNGNKKTSIYADQKQSNNPVYKLINTPGRKPERIVFNFNLIYPENDEEFNTEEILAMIKGLYKVQRRGKKHTEDYTSDKNRKKRKLDVLVERRQDLPSSQPPVVPKSTRIEVFKDDDNPSQSTHHKNTQVQVQTTTSILPLKPVVDGNLAHETPVKPSLTSNASRSPTVTAFSKDAINEVFSMFNQHYSTPGALLDGDDTTTSKFNVFENFTQEFTAKNIEDLTEVKDPKQETVSQQTTSTNETNDRYERLSNSSTRPEKADYMTPIKETTETDVVPIIQTPKEQIRTEDKKSGDNTETQTQLTSTTIQSSPFLTQPEPQAEKLLQTAEHSEKSKEHYPTIIPPFTKIKNQPPVIIENPLSNNLRAKFLSEISPPLFQYNTFYNYNQELKMSSLLKKIHRVSRNENKNPIVDFKKTGDLYCIRGELGEGGYATVYLAESSQGHLRALKVEKPASVWEYYIMSQVEFRLRKSTILKSIINASALHLFLDESYLVLNYASQGTVLDLINLQREKAIDGNGIMDEYLCMFITVELMKVLEKIHEVGIIHGDLKPDNCMIRLEKPGEPLGAHYMRNGEDGWENKGIYLIDFGRSFDMTLLPPGTKFKSNWKADQQDCWEMRAGKPWSYEADYYGLAGVIHSMLFGKFIETIQLQNGRCKLKNPFKRYWKKEIWGVIFDLLLNSGQASNQALPMTEKIVEIRNLIESHLEQHAENHLRNVILSIEEELSHFQYKGKPSRRF
partner: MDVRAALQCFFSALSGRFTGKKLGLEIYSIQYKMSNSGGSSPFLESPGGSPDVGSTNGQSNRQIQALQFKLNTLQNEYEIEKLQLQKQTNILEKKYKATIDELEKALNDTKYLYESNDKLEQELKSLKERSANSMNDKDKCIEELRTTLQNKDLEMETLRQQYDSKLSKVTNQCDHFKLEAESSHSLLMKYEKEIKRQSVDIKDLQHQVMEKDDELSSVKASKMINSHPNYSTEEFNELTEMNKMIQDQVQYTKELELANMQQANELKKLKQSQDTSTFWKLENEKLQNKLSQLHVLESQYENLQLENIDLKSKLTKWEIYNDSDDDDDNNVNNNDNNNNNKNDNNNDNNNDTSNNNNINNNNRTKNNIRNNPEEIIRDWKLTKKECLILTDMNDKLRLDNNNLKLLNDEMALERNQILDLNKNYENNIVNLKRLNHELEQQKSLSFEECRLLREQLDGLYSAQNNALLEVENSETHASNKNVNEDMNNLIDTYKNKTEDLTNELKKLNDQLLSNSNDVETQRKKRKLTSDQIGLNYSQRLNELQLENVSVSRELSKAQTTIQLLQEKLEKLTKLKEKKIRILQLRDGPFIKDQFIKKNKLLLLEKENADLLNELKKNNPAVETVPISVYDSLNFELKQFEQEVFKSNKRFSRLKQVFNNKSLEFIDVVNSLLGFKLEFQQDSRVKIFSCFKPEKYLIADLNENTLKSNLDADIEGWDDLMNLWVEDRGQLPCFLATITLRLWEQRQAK

Variants of: B1
Settings: with mad1_yeast MAD1, P40957

| Variant | effect of a mutation on the interaction |
| --- | --- |
| K733R | decreasing interaction |
